# From patent US20250353888A1
# How the values were obtained:
# [1] = target: FGF receptor 2b (FGFR2b) naturally expressed on 4MBr-5 rhesus monkey bronchial epithelial cells (rhesus monkey); assay: cell-based or functional assay
# [2] = target: FGFR2 receptor endogenously expressed on mammary adenocarcinoma MCF7 cells (UniProt P21802); assay: cell-based or functional assay
# Chain of FGFR2 receptor endogenously expressed on mammary adenocarcinoma MCF7 cells (P21802 22-821): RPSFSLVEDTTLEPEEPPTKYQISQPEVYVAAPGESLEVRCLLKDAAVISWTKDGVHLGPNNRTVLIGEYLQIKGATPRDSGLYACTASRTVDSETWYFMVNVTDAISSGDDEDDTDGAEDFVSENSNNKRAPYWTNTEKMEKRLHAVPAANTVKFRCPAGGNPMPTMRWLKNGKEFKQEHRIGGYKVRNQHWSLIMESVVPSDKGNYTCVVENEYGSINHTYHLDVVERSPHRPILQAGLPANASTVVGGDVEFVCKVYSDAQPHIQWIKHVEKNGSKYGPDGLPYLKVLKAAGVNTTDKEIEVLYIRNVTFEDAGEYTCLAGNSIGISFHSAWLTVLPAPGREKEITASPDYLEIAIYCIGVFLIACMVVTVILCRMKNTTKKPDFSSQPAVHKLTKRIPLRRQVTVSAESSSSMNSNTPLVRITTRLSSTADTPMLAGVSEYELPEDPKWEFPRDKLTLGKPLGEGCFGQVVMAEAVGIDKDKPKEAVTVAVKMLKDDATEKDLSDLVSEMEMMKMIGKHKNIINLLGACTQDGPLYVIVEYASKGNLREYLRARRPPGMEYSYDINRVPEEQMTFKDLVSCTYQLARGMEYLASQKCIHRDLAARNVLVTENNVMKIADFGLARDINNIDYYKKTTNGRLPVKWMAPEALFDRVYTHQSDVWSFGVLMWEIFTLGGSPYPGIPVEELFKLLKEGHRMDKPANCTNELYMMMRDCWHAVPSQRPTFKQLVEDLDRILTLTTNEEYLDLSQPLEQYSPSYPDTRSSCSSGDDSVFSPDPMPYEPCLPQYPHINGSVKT
Substance,"ED50, proliferation of 4MBr-5 cells (resazurin) [1] [ng/mL]",ED50 (ng/mL) determined using 4MBr-5 cells; no preincubation (control) [1] [ng/mL],ED50 (ng/mL) determined using 4MBr-5 cells; protein preincubated at 37° C. for 1 day [1] [ng/mL],ED50 (ng/mL) determined using 4MBr-5 cells; protein preincubated at 37° C. for 3 days [1] [ng/mL],ED50 (ng/mL) determined using 4MBr-5 cells; protein preincubated at 37° C. for 7 days [1] [ng/mL],"ED50, proliferation of lung epithelial 4MBr-5 cells (resazurin) [1] [ng/mL]","pKrox24 (MapERK)-DsRed reporter induction in MCF7 cells, 100 ng/mL, 24 hr (times, against FGF10-wt) [2]"
FGF10 from Falco peregrinus (FGF10-Fp) (ligand),12.7,–,–,–,–,–,–
FGF10-Fp+L152F (single point variant of FGF10-Fp) (ligand),6.1,–,–,–,–,–,–
FGF10-STAB (4-point mutant of FGF10: V123I+L152F+Q175E+N181D) (ligand),0.21,0.37,1,0.26,11.1,–,2.5

# Other lines, results leading:
"ED50, proliferation of 4MBr-5 cells (resazurin) [1] [ng/mL]",ED50 (ng/mL) determined using 4MBr-5 cells; no preincubation (control) [1] [ng/mL],ED50 (ng/mL) determined using 4MBr-5 cells; protein preincubated at 37° C. for 1 day [1] [ng/mL],ED50 (ng/mL) determined using 4MBr-5 cells; protein preincubated at 37° C. for 3 days [1] [ng/mL],ED50 (ng/mL) determined using 4MBr-5 cells; protein preincubated at 37° C. for 7 days [1] [ng/mL],"ED50, proliferation of lung epithelial 4MBr-5 cells (resazurin) [1] [ng/mL]","pKrox24 (MapERK)-DsRed reporter induction in MCF7 cells, 100 ng/mL, 24 hr (times, against FGF10-wt) [2]",Substance
1.9,–,–,–,–,–,–,FGF10^69-208+L152F (ligand)
–,0.95,12.5,21.1,34.8,0.8,–,"FGF10-wt (recombinant mature human FGF10, Leu40-Ser208, with N-terminal His-tag and thrombin cleavage site) (ligand)"
–,–,–,–,–,1.4,–,FGF10 single-point mutant L152F (ligand)
